Source: the nanobody polyreactivity screen of Harvey et al. (2022)

Assay: yeast display, Sf9 membrane polyspecificity reagent, FACS + sequencing; frameworks hold sequencing errors
Procedure, shortened: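 Sorting gates, low and high (top ~1%), were placed on anti-HA fluorescence to track expression and on streptavidin fluorescence to track reagent binding. A clone's polyreactivity label is taken from the gate it came out of. The reagent was 10% biotinylated, detergent-solubilized Sf9 membrane, applied for 1 hour at 4 °C to galactose-induced yeast display cells.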

Row | Sequence | polyreactivity (PSR sort gate)
1 | QVQLVETGGGLVQAGGSLRLSCAASGSTFYYNAMGWYRQAPGKERELVARITRSGGSTYADSVKGRFTISRDNAKNSVYLQMNSLKPEVTAVYYWNADAYGTPEFTSYALRYDYWGQGTQVTVSS | low polyreactivity
2 | QVQLVESGGGLVQAGGSLRLSCAASGRIFASYAMGWYRQAPGKERELVASITRRGGSTYYADSVKGRFTISRDNAKNTVYLQMNSLKPPGSTYEGGYWGQGTQVTVSS | low polyreactivity
3 | QVQLLESGGGLVQAGGSLRLSCAASGRTFRVYARGWYRQAPGKEREFVATISVRGGSTYYAYSVKGRFTISRDNAKITVYLQMNSLKPVDTAVYYCARSSRGNLDYWGQGTQVSVSS | low polyreactivity
4 | QVQLVESGGGLVQAGGSLRLTCAASGRISGYNMGWYRQAPGKERELVAGIDYSGGSTYYADSVKGRFTISRDNAKYNVSLQMTSLKPEDTAVYDCNAVYARKYYYSHGYDYWGQGTQVTVSS | high polyreactivity
5 | QVQLVESGGGLVQAGGSLRLSCAASGITFMFYAMGWSRQAPGKVRELVAAISSSGGTTYYADSVKGRFTISRDNAKNTVYLQMNSLTPEDTAVYYCAARRVLASWYDYNYWGQGTQVTVSS | high polyreactivity
6 | QVQLVESGGGLVQAGGSLRLSCAASGLTLYKNGMGWYRQAPGKERELVAVISRSGGRTYYADSVKGRFTISRDNAKNTVYLQMNSLKPEDTAVYYCAAAWYSSSRYQGIYRFDYWGQGTQVTVSS | high polyreactivity
7 | QVQLVESGGGLVQAGGSLRLSCAASGFTFTYYAMGWYRQAPGKERELVAGITRSGGSTYYADSVKGRFTISRDNAKNTVYLHMNSLKPEDTAVYYCAAVGSLYYYRYDYWGQGTQVTVSS | high polyreactivity
8 | QVQLVESGGGLVQAGGSLRLSCAASGRIFGTYAMGWYRQAPGKERELVAAITQSGGRTYYADSVKGRFTISRDNAKNTVYLQMNSLKPEDTAVYYCNKVTYRGIGLGYDYWGQGTQVTVSS | high polyreactivity
9 | QVQLVESGGGLVQARGSLRLSCAASGSTILYYAMGWYRQAPGKERELVAVIRLDAGRTYYADSVKGRFTISRDNAKNTVYFQMNSLKPEDTAVYYCAAKGCFRTYGGGNYWGQGTQVTVSS | high polyreactivity
10 | QVQLVESGGGLVQAGGSLRLSCAASGSTFRWNAMGWYRQAPGKETELVAAITRSVGSTYYADSVKGRFTISRDNAKNTVYLQMNSLKPEDTAVYYCAADFYYYGFDYWGQGTQVTVSS | low polyreactivity
11 | QDQLVESVGSLVQAGGSHRLSCSASGFIIANNPMGWYRQAPGKERELVATITGGGSTDYADTVKRRFTISRDNAKNTVYLQMNSLKPEDTAVYYCAAEYKYWAFASPSLTTNDSWGQGTQVTVSS | low polyreactivity
12 | QVQLVESRGGLVHAGGSLRLSCAASGSIFQSYYMGWYRQAPGKERELVAAISWSGSTTYYADSVKGRFTISRDNAKNTVYLQMNSLKPEDTAVYYCAVDSNPPDWWAVIYGYWGQGTQVTVSS | low polyreactivity
13 | QVQLVESGGGLVQAGGSLRLSCAASGSIFRVNAMGWYRQAPGKERELVAAISCRGASTYYADSVKGRFTISRDNAKNTVYLQMNSLKPVDTAVYYCAAYGYSIGPYYYWGQGTQVTGSS | high polyreactivity
14 | QDQLVESGGGLVQAGGSLRLSCAASGLTYRLNAMGWYRQAPGKEREFVAAISAIGDRTYYADSVKGRFTISRDNAKNTVYLQMNSLKPEDTSVYYCNVTPRSAQVRIGNYWGQGTQVTVSS | high polyreactivity
15 | QVQVVESGGGLVQAGGSLRLSCAASGRTFYGNAMGWYRQAPGKERELVASITSRGDNTYYADSVKGRFTISRDNAKNTVYFQMNSLKPEDTAVYYCAAGTVYYTYLWMGYWGQGTQVTVSS | low polyreactivity
16 | QVQLVESGGGLVQAGGRLRLSCAASVFIFGIYASGWYRQAPGKDRELVAAITWDTGSTYYADSVKGRFTISRDNAKNTVYLQMNRLKPEDTAVYYRAVDGWDLTYYDSYYSWGQGTQVTVSS | high polyreactivity
17 | QDQLVESGGGFVQAGGSLRLSCAASGLTFWYYAMGWYRQATGKEVELVAANDWSGASTYYADSVKGRFTISRDNAKNTVYLQMISLQPEDTAVYYCNTVYYIGDDYWGQGTQVTVSS | high polyreactivity
18 | QVQLVESGGGLVQAGGSLRLSCAASGSTFRTYAMGWYRQAPGKERELVADITWRGGSTYYADSVKGRFTISRDNAKNTVYLQMNSLKPEDTAGYYCATDRGPEVVLYDYWGQGTQVTVSS | low polyreactivity
19 | QVQLVESGGGLVQAGGSLRLSCAASGRTFRPNAMGWYRQAPGKERELVASITRRGGTTYYADSVKGRFTISRDNAKNTVYLQMYSLKPEDSAVYYCNAPPGYSSTRNGYWGQGTQVTVSS | high polyreactivity
20 | QVQLVESGGGLVQAGGSLRLSCAASGRIFTYYAMGWYRQAPGKERELVAAITGSGGSTYYADSVKGRFTISRDNAKNTVYLQMNSLKPEDTAVYYCAAYWFTATWYYYWGQGTQVTVSS | high polyreactivity
21 | QVQLVESGGGLVQAGGSLRLSCAASGFIIGDYAMGWYRQAPGKERELVAAITISGGGTYYADSVKGRFTISRDNAKNTVYLQMNSLKPEDTAVYYCAAGYYDLNLDTDFGFDYWGQGTQVTVSS | low polyreactivity
22 | QDQLVESGGGLVQAGGSLRLSCAASGRIFRYYTRGWYRQAPGKERELVAAIRWSGSTTYYADSVKGRFTISRDYAKNTVYLLMNSLKPEDTAVYYCDARWSYPRWEFDYWGQGTQVTVSS | high polyreactivity

Row | Sequence | polyreactivity (PSR sort gate)
23 | QVQLVESGGGLVQAGCSLRLSCAASGSIFRYYAMGWYRQAPGKERELVAAITSSGGSTYYADSVKGRFTISRDNSKNTVYLQMNSLKPEDTAVYYCNARHVRYSRRENDYWGQGTQVTVSS | high polyreactivity
24 | QVQLVESGGGLVQAGGSLRLSCAASGRTFSKYAMGWYRQAPGKERELVASISSDGRTYYADSVKGRFTISRDNAKNTVYLQMNRLKPEDTAVYYCAAKEWYFPTWYTYYERDYWGQGTQVTVSS | high polyreactivity
25 | QVQLVESGGGLVQAGGSLRLSCAASGRIFSYYVMGWNRQAPGKERELVAAITSGGSTNYADSEKGRFTISRDNAKNTVYLQMNSLKPEDTAVYYCNRAYTYINRLYGYWGQGTQVTVSS | high polyreactivity
26 | QVQLVESGGGLVQAGGSLRLSCAASGFIFTDYAMGWYRQATGQEREFVAAIDWSGGNTYYADSVKGRFTISRDNAKNTVYLQLNSLKPEDTAVFFCSASGSAREYDYWGQGTQVTVSS | low polyreactivity
27 | QVQLVESGGGLVQAGGSLRLSCAASGFTFGYYGMGWYRQAPGKERELVAAISWSGGSTYYADSVKGRFTISRDNEKNTVYLQMNSLKPEDTAVYYCNADYAGFYQRRYIEDDYWGQGTQVTVSS | low polyreactivity
28 | QVQLVESGGGFVQAGGSLRLSCAASGLTFVANAMGWYRQAPGTESEMVAGITQTGGSTYYADSVKGRFTISRDNAKNTVYLQMISLKPEDTAVYYCAATYRRLRYGKLYYYWGQGTQVTVSS | high polyreactivity
29 | QVQLVESGGGLVQAGGSLRLSCAASGRIFSHYAMGWYRQAPGKERELVAAINRSGGSTYYADSVKGRFTISRDNAKNTVYLQMNSLKPEDTAVYYCAADVKYGYDWGQGTQVTVSS | high polyreactivity
30 | QLQLVESGGGLVQAGGSLRLSCAASGFTFRCNAMGWYRQAPGKEMELVAGITSGGSTNYADSVKGRFTISRDNAKNTVYLQMNSLKPEDTAVYYCNAAWYRWKQRYDYWGQGTQVTVSS | low polyreactivity
31 | QVQLVESGGGLVQAGGSLRLSCAASGSIFWFYAMGWYRQAPGKERELVAAITSTGGTYYADSVKGRFTISRDNAKNTVYLQMNSLKPEDTAVYYCAADRIGGPGSYLYDYWGQGTQVTVSS | low polyreactivity
32 | QVQLVESGGGLVQAGGSLRLSCDASGSILSFYVMGWYIQAPGKERELVAAINLSSGRTYYADSVKGRFTISRDNAKNTVYLQMNSLKPEDTAVYYCAKQVFGYGIVNNGDYWGQGTQVTVSS | high polyreactivity
33 | QVQLVESGGGLVQAGGRLRLSCAASGGWYRQAPGKERELVAAISWRDSSTYYADSVKGRFTISRDNAKNTVYLQMNSLKPEDTAVYYCAVRAYPWPEYYYWGQGTQVTVSS | low polyreactivity
34 | QVQLVESGGGLVQAGGSLRLSCAASGRIFNSYAMGWYIQAPGKERELVAAISSGGSTYYADSVKGRFTISRDNAKNTVYLQMNSLKPEDTAVYYCAARIWTGRGRKLGYGYDYWGQGTQVTVSS | low polyreactivity
35 | QVQLVESVGGLVQAGGSLRLSCAASGLIFASYAMGWYRQAPGKERELVAAISWSGGSTYYADSVKGRFTISRDYAKITVYLQMNSLKPEDTAVYYCAAIRYAYGSLDYWGQGTQVTVSS | high polyreactivity
36 | QVQLVESGGGLVQAGGSLRLSCAASGFIFTPYAMGWYRQAPGKERELVAAITWRGARTYYADSVKGRFTISRDNAKNTVYLQMNSLKPEDTAVYYCATTFTGYNKEFGYWGQGTQVTVSS | high polyreactivity
37 | QVQLVESGGGLVQAGGSLRLSCAASGRISYGYAMGWYRQAPGKERELVAAISRSGGTTYYADSVKGRFTISRDNAKNTVYLQMNSLKPEDTAVYYCNRVWYATDFVNTMGYWGQGTQVTVSS | low polyreactivity
38 | QVQLVESGGGLVQAGGSLRLSCAASGRTFRYNAMGWYREAPGKERELVAAISTRGGSTYYADSVKGRFTISRDNAKNTVYLQMNSLKPEDTAVYYCAVTRRFPGHFEDYYWGQGTQVTVSS | low polyreactivity
39 | QVQLVESGGGLVQAGGSLRLICAASGFTFYRYAMGWYRQAPGKERELVASITRSGGSTSYADSVKGRFTISRDNAKNSVYLQMNRLKPEDTAVFYCAAVTTQYLFSVPYYYWGQGTQVTVSS | high polyreactivity
40 | QVQLVESGGGLVQAGGSLRLSCAASGLTFHPYAMGWYRQAPGKERELVAAISSRGTSTYYADSVKGRFTISRDNAKNTVYLQMNSLKPEDTAVYYCAARHGPRAESMYYWGQCTQVTVSS | high polyreactivity
41 | QFQLVESGGGLVQSGGSLRLSCAASGLIFVFYAMGWYRQAPGKERELVAAISTSGDRTYYADSVKGRFTISRDNAKNTVYLQMNSLKPEDTAVYYCAAGRRKVPYSREYYYWGQGTQVTVSS | high polyreactivity
42 | QVQLVESGGGLVQAGGSLRLSCAASGSIFFRNAMGWYRQAPGKERELVAAITFSGGRTYYADSVKGRFTISRDTANNTVYLQMNSMKPEDTAVYYCAGRRSYTYARYDYWGQGTQVTVSS | high polyreactivity
43 | QVQLVESGGGLVQAGGSLRLSCAASGSIFEIYAMGWYRQAPGKERELVASITWSGGSTYYADSVKGRFTISRDNAKNTVYLQMNSLKPEDTAVYYCATDKLYGRTVRMDYWGQGTQVTVSS | low polyreactivity
